Assay results: paper PMC3587421, “Native Tertiary Structure and Nucleoside Modifications Suppress tRNA’s Intrinsic Ability to Activate the Innate Immune Sensor PKR”

Target: PKR dsRBD (P20) (UniProt P19525 1-184)
Assay: EMSA; 0.1 mg/mL herring sperm DNA competitor; Hill 2.9; 25 mM Hepes-KOH pH 7.5, 10 mM NaCl, 5% glycerol, 5 mM DTT, 0.1 mM EDTA, 0.1 mg/mL tRNAPhe or herring sperm DNA; room temperature 10 min; 10% native gel, 0.5x TB, 16 C
Details: protein: recombinant; chain copies: 2; label: 5'-32P; tRNA fold, monomer, ~20 bp

Sequence of PKR dsRBD (P20) (P19525 1-184): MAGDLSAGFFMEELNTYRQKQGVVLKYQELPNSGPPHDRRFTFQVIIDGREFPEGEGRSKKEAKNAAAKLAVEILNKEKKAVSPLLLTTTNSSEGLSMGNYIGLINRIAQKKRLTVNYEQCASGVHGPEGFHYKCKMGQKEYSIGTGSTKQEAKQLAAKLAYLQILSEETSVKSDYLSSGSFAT

B1: T7 mt-tRNALeu WT (monomer) (structured_RNA)
RNA: UUAAGAUGGCAGAGCCCGGUAAUCGCAUAAAACUUAAAACUUUACAGUCAGAGGUUCAAUUCCUCUUCUUAACACCA
modifications: none (unmodified transcript)
Kd: 5.1 µM
